Assays:
[1] = biological target: myh9_human MYH9 (UniProt P35579)
[2] = biological target: myh9_human MYH9 (UniProt P35579); remark: listed apart in the source

Sequence of myh9_human MYH9 (P35579 whole entry): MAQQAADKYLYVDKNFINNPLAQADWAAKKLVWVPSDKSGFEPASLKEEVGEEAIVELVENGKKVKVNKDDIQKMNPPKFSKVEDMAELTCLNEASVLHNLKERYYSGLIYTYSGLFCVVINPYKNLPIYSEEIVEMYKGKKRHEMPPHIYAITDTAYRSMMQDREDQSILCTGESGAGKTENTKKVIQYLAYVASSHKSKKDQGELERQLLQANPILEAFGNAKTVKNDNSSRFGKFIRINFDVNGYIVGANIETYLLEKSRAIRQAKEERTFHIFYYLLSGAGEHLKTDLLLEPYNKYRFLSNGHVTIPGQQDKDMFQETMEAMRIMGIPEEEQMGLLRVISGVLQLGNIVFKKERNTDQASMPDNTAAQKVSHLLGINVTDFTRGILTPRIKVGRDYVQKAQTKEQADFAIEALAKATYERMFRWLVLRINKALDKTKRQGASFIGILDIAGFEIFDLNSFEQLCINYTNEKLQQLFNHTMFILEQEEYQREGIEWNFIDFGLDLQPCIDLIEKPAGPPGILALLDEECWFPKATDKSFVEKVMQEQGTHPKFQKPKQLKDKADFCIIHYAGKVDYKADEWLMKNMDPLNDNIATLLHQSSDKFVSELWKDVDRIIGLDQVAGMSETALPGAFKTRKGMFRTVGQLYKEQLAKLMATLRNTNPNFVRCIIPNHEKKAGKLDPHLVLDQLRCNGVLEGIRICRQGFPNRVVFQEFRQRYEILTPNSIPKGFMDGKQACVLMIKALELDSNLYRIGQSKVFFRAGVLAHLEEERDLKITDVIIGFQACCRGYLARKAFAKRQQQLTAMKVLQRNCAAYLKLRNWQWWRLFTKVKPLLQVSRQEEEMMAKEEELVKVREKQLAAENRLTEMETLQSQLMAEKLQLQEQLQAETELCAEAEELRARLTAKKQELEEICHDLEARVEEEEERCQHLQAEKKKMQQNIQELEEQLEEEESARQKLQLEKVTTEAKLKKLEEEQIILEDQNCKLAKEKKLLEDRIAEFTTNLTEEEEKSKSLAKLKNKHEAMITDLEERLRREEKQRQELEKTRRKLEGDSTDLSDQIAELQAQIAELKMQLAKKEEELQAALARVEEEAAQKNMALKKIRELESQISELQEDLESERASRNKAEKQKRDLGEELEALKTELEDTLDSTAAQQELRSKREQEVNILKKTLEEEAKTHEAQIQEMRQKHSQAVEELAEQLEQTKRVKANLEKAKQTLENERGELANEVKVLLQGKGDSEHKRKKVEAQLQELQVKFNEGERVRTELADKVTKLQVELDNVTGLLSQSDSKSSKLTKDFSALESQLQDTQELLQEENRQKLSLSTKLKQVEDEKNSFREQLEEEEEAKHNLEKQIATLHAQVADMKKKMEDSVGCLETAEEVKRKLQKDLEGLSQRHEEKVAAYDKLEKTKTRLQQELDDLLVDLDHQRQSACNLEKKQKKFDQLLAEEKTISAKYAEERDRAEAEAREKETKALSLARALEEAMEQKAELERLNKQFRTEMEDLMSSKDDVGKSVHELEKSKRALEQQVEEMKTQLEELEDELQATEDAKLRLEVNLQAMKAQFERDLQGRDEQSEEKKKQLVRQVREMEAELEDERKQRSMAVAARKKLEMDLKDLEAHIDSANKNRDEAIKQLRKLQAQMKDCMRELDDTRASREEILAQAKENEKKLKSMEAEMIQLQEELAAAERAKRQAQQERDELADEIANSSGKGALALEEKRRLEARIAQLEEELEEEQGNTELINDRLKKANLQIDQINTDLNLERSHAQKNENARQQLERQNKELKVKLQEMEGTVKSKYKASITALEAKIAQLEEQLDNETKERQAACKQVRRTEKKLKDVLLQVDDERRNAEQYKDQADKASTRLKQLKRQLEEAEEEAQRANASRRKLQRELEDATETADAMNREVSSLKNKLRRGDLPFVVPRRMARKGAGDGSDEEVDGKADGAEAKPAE
Sequence of Protein S100-A4 (Homo sapiens), P26447 C3S;F45W;C81S;C86S (P26447 whole entry C3S/F45W/C81S/C86S): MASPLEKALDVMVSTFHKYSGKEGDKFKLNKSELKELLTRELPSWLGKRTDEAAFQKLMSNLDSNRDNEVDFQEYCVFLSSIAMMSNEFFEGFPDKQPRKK

Substance	effect of a mutation on the interaction [1]	effect of a mutation on the interaction [2]
Protein S100-A4 (Homo sapiens), P26447 C3S;F45W;C81S;C86S	decreasing interaction strength	
Protein S100-A4 (Homo sapiens), P26447 F45W		with no effect

Source: IntAct's records for PubMed 22460785
